Assay results as given in ChEMBL document CHEMBL3769311, “The natural flavone fukugetin as a mixed-type inhibitor for human tissue kallikreins” (Bioorg Med Chem Lett, 2016).

Experiments:
[1] = substrate: O=C1CC(c2ccc(O)c(O)c2)Oc2c1c(O)cc(O)c2[C@@H]1C(=O)c2c(O)cc(O)cc2O[C@H]1c1ccc(O)cc1; settings: Homo sapiens; 8 uM
Description: Mixed-type inhibition of human tissue kallikrein-2 expressed in baculovirus infected insect cells using Abz-KLRSSQ-EDDnp as substrate assessed as substrate Km at 8 uM by Lineweaver-Burk plot analysis

[2] = substrate: O=C1CC(c2ccc(O)c(O)c2)Oc2c1c(O)cc(O)c2[C@@H]1C(=O)c2c(O)cc(O)cc2O[C@H]1c1ccc(O)cc1; settings: Homo sapiens; 8 uM; remark: listed apart in the source
[3] = substrate: O=C1CC(c2ccc(O)c(O)c2)Oc2c1c(O)cc(O)c2[C@@H]1C(=O)c2c(O)cc(O)cc2O[C@H]1c1ccc(O)cc1; settings: Homo sapiens; 2 uM
[4] = substrate: O=C1CC(c2ccc(O)c(O)c2)Oc2c1c(O)cc(O)c2[C@@H]1C(=O)c2c(O)cc(O)cc2O[C@H]1c1ccc(O)cc1; settings: Homo sapiens; 4 uM
[5] = substrate: O=C1CC(c2ccc(O)c(O)c2)Oc2c1c(O)cc(O)c2[C@@H]1C(=O)c2c(O)cc(O)cc2O[C@H]1c1ccc(O)cc1; settings: Homo sapiens; 4 uM; remark: listed apart in the source
Description: Mixed-type inhibition of human tissue kallikrein-2 expressed in baculovirus infected insect cells using Abz-KLRSSQ-EDDnp as substrate assessed as substrate Km at 4 uM by Lineweaver-Burk plot analysis

[6] = substrate: O=C1CC(c2ccc(O)c(O)c2)Oc2c1c(O)cc(O)c2[C@@H]1C(=O)c2c(O)cc(O)cc2O[C@H]1c1ccc(O)cc1; settings: Homo sapiens; 10 uM
Description: Mixed-type inhibition of human tissue kallikrein-2 expressed in baculovirus infected insect cells using Abz-KLRSSQ-EDDnp as substrate assessed as substrate Km at 10 uM by Lineweaver-Burk plot analysis

[7] = substrate: O=C1CC(c2ccc(O)c(O)c2)Oc2c1c(O)cc(O)c2[C@@H]1C(=O)c2c(O)cc(O)cc2O[C@H]1c1ccc(O)cc1; settings: Homo sapiens; 10 uM; remark: listed apart in the source
[8] = substrate: O=C1CC(c2ccc(O)c(O)c2)Oc2c1c(O)cc(O)c2[C@@H]1C(=O)c2c(O)cc(O)cc2O[C@H]1c1ccc(O)cc1; settings: Homo sapiens; 2 uM; remark: listed apart in the source
Description: Mixed-type inhibition of human tissue kallikrein-2 expressed in baculovirus infected insect cells using Abz-KLRSSQ-EDDnp as substrate assessed as substrate Km at 2 uM by Lineweaver-Burk plot analysis

B1: Kallikrein-2 (Homo sapiens), P20151 (protein)
chain: MWDLVLSIALSVGCTGAVPLIQSRIVGGWECEKHSQPWQVAVYSHGWAHCGGVLVHPQWVLTAAHCLKKNSQVWLGRHNLFEPEDTGQRVPVSHSFPHPLYNMSLLKHQSLRPDEDSSHDLMLLRLSEPAKITDVVKVLGLPTQEPALGTTCYASGWGSIEPEEFLRPRSLQCVSLHLLSNDMCARAYSEKVTEFMLCAGLWTGGKDTCGGDSGGPLVCNGVLQGITSWGPEPCALPEKPAVYTKVVHYRKWIKDTIAANP
With B1 as the protein, how does the Km [1] read?
The Km was 1.04 µM.

What about the Vmax [2] of the same protein?
Its Vmax is 110 µM/s.

What about the Vmax [3] of the same protein?
Its Vmax is 192 µM/s.

And the Vmax [4]?
Its Vmax is 144 µM/s.

What about the Km [5] of the same protein?
Its Km is 0.81 µM.

What about the Km [6] of the same protein?
Its Km is 1.2 µM.

What about the Vmax [7] of the same protein?
Its Vmax is 79 µM/s.

And the Km [8]?
Its Km is 0.72 µM.
